The target of assay [1] is T1, PRMT5/biotinylated WDR77 complex (UniProt O14744 1-637; Q9BQA1 1-342, biotin (site not stated)).
T1 construct: PRMT5 (protein arginine methyltransferase 5); Held by terbium-coupled streptavidin in the TR-FRET assay; copies: 4 + 4
The assay can be described thus: FRET or BRET; TR-FRET equilibrium binding: adaptors labeled by BODIPY-maleimide titrated into PRMT5/biotinylated WDR77 incubated with terbium-coupled streptavidin. The settings on record: both partners purified. On the technique in general: BRET reads energy transfer from a luciferase to a nearby fluorophore.

For assay [2], the target named is T1, PRMT5/biotinylated WDR77 complex. The assay can be described thus: FRET or BRET; TR-FRET displacement: unlabeled pICln, RIOK1 and ΔPBM constructs titrated to displace BODIPY-labeled pICln tracer from PRMT5/WDR77. The note with it: both partners purified.

T1 sequence (O14744 whole entry, chain 1 of 2): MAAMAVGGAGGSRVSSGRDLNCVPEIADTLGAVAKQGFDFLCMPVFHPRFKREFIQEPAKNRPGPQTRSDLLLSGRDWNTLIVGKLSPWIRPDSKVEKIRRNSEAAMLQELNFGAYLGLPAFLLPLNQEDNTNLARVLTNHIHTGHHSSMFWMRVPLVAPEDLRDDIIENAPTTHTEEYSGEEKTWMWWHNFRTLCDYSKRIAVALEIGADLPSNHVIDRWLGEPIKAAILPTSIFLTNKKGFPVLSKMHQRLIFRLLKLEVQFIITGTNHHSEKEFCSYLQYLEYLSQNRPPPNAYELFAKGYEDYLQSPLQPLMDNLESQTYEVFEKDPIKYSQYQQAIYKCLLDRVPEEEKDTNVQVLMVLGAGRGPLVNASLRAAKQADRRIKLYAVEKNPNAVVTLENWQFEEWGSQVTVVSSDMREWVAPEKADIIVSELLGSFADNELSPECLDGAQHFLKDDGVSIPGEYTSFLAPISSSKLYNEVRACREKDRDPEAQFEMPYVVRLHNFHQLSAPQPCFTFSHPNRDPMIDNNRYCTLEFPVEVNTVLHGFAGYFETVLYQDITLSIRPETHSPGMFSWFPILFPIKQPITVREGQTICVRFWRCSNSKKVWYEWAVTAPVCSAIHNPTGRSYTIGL
T1 sequence (Q9BQA1 whole entry, chain 2 of 2): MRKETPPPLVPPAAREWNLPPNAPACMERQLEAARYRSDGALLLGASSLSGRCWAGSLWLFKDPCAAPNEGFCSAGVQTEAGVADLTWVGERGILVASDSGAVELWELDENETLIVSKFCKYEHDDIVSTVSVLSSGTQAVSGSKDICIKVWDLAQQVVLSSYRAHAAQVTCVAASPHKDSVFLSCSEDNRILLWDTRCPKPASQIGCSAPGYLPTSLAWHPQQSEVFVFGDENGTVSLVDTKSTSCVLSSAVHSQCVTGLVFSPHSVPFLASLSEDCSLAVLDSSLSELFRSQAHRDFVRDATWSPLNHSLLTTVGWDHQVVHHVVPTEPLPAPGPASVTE

B1: BODIPY-labeled pICln (natural protein, UniProt P54105 1-237, looked up)
chain: MSFLKSFPPPGPAEGLLRQQPDTEAVLNGKGLGTGTLYIAESRLSWLDGSGLGFSLEYPTISLHALSRDRSDCLGEHLYVMVNAKFEEESKEPVADEEEEDSDDDVEPITEFRFVPSDKSALEAMFTAMCECQALHPDPEDEDSDDYDGEEYDVEAHEQGQGDIPTFYTYEEGLSHLTAEGQATLERLEGMLSQSVSSQYNMAGVRTEDSIRDYEDGMEVDTTPTVAGQFEDADVDH
modifications: BODIPY (labeled by BODIPY-maleimide; site not stated)
notes: pICln, PRMT5 substrate adaptor with a PBM peptide in its C-terminal region; also called BODIPY-pICln; source: LBSTR Escherichia coli (Kerafast, EC1002), purified
By Kd is commonly meant the constant that tells how readily two partners part at equilibrium. For B1, the Kd in assay [1] is 0.0325 ± 0.0038 µM.

B2: pICln (unlabeled) (natural protein, UniProt P54105 1-237, looked up)
chain: MSFLKSFPPPGPAEGLLRQQPDTEAVLNGKGLGTGTLYIAESRLSWLDGSGLGFSLEYPTISLHALSRDRSDCLGEHLYVMVNAKFEEESKEPVADEEEEDSDDDVEPITEFRFVPSDKSALEAMFTAMCECQALHPDPEDEDSDDYDGEEYDVEAHEQGQGDIPTFYTYEEGLSHLTAEGQATLERLEGMLSQSVSSQYNMAGVRTEDSIRDYEDGMEVDTTPTVAGQFEDADVDH
notes: pICln, PRMT5 substrate adaptor with a PBM peptide in its C-terminal region; Used free in the displacement assay and as a member of the 6S complex in the cryo-EM sample; only the PBM peptide is seen in the map; also called pICIn; source: LBSTR Escherichia coli (Kerafast, EC1002), purified
By IC50 is commonly meant the concentration at which inhibition is half-maximal. As for B2, the IC50 in assay [2] turned out to be 0.0695 ± 0.0033 µM.

These data come from PMC11847536 (The Journal of Biological Chemistry, 2025).
